# B1: Speckle-type POZ protein (Homo sapiens), O43791 (parent)
# chain: MSRVPSPPPPAEMSSGPVAESWCYTQIKVVKFSYMWTINNFSFCREEMGEVIKSSTFSSGANDKLKWCLRVNPKGLDEESKDYLSLYLLLVSCPKSEVRAKFKFSILNAKGEETKAMESQRAYRFVQGKDWGFKKFIRRDFLLDEANGLLPDDKLTLFCEVSVVQDSVNISGQNTMNMVKVPECRLADELGGLWENSRFTDCCLCVAGQEFQAHKAILAARSPVFSAMFEHEMEESKKNRVEINDVEPEVFKEMMCFIYTGKAPNLDKMADDLLAAADKYALERLKVMCEDALCSNLSVENAAEILILADLHSADQLKTQAVDFINYHASDVLETSGWKSMVVSHPHLVAEAYRSLASAQCPFLGPPRKRLKQS
# Variants of: B1
# Conditions: with ikba_human NFKBIA
row,effect of a mutation on the interaction,Variant
1,with no effect,MSRVPSPPPPAEMSSGPVAESWCYTQIKVVKFSYMWTINNFSFCREEMGEVIKSSTFSSGANDKLKWCLRVNPKGLDEESKDYLSLYLLLVSCPKSEVRAKFKFSILNAKGEETKAMESQRAYRFVQGKDWGVKKFIRRDFLLDEANGLLPDDKLTLFCEVSVVQDSVNISGQNTMNMVKVPECRLADELGGLWENSRFTDCCLCVAGQEFQAHKAILAARSPVFSAMFEHEMEESKKNRVEINDVEPEVFKEMMCFIYTGKAPNLDKMADDLLAAADKYALERLKVMCEDALCSNLSVENAAEILILADLHSADQLKTQAVDFINYHASDVLETSGWKSMVVSHPHLVAEAYRSLASAQCPFLGPPRKRLKQS [F133V]

# Variants of: B1
# Conditions: with nox1_human NOX1, Q9Y5S8
# nox1_human NOX1, Q9Y5S8, sequence (Q9Y5S8 whole entry): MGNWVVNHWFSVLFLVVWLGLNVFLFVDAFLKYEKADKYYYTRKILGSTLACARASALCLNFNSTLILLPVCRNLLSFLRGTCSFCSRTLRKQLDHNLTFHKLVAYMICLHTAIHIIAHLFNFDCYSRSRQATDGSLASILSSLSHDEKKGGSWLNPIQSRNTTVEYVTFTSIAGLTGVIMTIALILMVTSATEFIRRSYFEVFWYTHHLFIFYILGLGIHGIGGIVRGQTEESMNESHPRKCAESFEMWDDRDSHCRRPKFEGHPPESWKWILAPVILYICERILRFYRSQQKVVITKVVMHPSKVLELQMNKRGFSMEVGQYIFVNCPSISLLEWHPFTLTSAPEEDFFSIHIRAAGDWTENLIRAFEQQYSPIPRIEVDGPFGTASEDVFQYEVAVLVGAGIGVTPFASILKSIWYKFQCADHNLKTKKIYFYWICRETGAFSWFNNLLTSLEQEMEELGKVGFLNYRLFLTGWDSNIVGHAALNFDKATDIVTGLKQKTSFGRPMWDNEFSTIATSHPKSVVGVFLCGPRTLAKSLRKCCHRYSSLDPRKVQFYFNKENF
row,effect of a mutation on the interaction,Variant
1,with no effect,MSRVPSPPPPAEMSSGPVAESWCYTQIKVVKFSYMWTINNFSFCREEMGEVIKSSTFSSGANDKLKWCLRVNPKGLDEESKDYLSLYLLLVSCPKSEVRAKFKFSILNAKGEETKAMESQRAYRFVQGKDWGVKKFIRRDFLLDEANGLLPDDKLTLFCEVSVVQDSVNISGQNTMNMVKVPECRLADELGGLWENSRFTDCCLCVAGQEFQAHKAILAARSPVFSAMFEHEMEESKKNRVEINDVEPEVFKEMMCFIYTGKAPNLDKMADDLLAAADKYALERLKVMCEDALCSNLSVENAAEILILADLHSADQLKTQAVDFINYHASDVLETSGWKSMVVSHPHLVAEAYRSLASAQCPFLGPPRKRLKQS [F133V]

# Variants of: B1
# Conditions: with npm_human NPM1, P06748
# npm_human NPM1, P06748, sequence (P06748 whole entry): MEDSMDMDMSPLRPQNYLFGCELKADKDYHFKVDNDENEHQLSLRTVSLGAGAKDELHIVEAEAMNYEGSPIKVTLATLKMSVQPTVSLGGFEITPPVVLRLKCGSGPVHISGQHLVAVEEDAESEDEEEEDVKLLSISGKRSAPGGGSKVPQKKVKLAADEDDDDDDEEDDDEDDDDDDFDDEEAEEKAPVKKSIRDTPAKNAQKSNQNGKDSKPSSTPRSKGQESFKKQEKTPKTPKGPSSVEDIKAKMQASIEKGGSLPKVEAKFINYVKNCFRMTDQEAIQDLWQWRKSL
row,effect of a mutation on the interaction,Variant
1,with no effect,MSRVPSPPPPAEMSSGPVAESWCYTQIKVVKFSYMWTINNFSFCREEMGEVIKSSTFSSGANDKLKWCLRVNPKGLDEESKDYLSLYLLLVSCPKSEVRAKFKFSILNAKGEETKAMESQRAYRFVQGKDWGVKKFIRRDFLLDEANGLLPDDKLTLFCEVSVVQDSVNISGQNTMNMVKVPECRLADELGGLWENSRFTDCCLCVAGQEFQAHKAILAARSPVFSAMFEHEMEESKKNRVEINDVEPEVFKEMMCFIYTGKAPNLDKMADDLLAAADKYALERLKVMCEDALCSNLSVENAAEILILADLHSADQLKTQAVDFINYHASDVLETSGWKSMVVSHPHLVAEAYRSLASAQCPFLGPPRKRLKQS [F133V]

# Variants of: B1
# Conditions: with nsd3_human NSD3, Q9BZ95
# nsd3_human NSD3, Q9BZ95, sequence (Q9BZ95 whole entry): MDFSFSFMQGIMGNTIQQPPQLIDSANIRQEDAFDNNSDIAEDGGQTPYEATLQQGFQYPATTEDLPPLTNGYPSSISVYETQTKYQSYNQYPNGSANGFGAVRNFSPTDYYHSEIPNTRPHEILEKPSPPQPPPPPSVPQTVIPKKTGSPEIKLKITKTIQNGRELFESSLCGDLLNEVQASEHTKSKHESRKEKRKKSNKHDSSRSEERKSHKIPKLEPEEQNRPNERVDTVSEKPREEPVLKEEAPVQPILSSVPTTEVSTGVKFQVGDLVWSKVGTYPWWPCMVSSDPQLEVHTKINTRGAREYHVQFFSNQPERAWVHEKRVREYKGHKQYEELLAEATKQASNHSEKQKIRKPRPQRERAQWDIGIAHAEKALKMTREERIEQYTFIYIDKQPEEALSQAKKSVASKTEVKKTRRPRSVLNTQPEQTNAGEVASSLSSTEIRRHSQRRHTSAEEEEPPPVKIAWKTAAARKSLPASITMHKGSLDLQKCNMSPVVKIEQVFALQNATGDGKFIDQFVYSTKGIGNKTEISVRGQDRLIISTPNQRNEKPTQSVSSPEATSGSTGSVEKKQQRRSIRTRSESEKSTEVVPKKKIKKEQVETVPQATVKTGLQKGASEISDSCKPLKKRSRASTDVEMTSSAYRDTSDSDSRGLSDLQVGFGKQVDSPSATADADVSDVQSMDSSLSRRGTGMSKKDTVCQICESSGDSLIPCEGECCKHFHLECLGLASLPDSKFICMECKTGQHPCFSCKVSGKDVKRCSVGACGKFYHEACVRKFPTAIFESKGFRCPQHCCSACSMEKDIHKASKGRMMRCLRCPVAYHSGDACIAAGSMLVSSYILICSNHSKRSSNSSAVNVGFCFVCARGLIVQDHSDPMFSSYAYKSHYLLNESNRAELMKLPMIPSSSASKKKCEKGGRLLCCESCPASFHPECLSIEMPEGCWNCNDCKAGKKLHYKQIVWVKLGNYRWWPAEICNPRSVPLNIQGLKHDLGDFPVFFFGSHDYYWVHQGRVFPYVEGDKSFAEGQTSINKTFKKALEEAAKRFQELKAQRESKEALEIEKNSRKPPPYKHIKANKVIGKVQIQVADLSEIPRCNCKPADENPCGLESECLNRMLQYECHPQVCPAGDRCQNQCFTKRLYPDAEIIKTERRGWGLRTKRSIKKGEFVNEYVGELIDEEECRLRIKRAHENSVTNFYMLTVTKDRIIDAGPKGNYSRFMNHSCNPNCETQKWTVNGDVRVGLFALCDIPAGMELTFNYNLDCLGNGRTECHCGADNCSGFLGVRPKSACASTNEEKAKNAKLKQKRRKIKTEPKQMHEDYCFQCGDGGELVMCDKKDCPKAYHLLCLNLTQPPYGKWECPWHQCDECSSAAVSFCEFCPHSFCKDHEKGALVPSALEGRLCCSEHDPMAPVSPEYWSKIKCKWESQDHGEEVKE
row,effect of a mutation on the interaction,Variant
1,with no effect,MSRVPSPPPPAEMSSGPVAESWCYTQIKVVKFSYMWTINNFSFCREEMGEVIKSSTFSSGANDKLKWCLRVNPKGLDEESKDYLSLYLLLVSCPKSEVRAKFKFSILNAKGEETKAMESQRAYRFVQGKDWGVKKFIRRDFLLDEANGLLPDDKLTLFCEVSVVQDSVNISGQNTMNMVKVPECRLADELGGLWENSRFTDCCLCVAGQEFQAHKAILAARSPVFSAMFEHEMEESKKNRVEINDVEPEVFKEMMCFIYTGKAPNLDKMADDLLAAADKYALERLKVMCEDALCSNLSVENAAEILILADLHSADQLKTQAVDFINYHASDVLETSGWKSMVVSHPHLVAEAYRSLASAQCPFLGPPRKRLKQS [F133V]

# Variants of: B1
# Conditions: with ntrk2_human NTRK2, Q16620
row,effect of a mutation on the interaction,Variant
1,with no effect,MSRVPSPPPPAEMSSGPVAESWCYTQIKVVKFSYMWTINNFSFCREEMGEVIKSSTFSSGANDKLKWCLRVNPKGLDEESKDYLSLYLLLVSCPKSEVRAKFKFSILNAKGEETKAMESQRAYRFVQGKDWGVKKFIRRDFLLDEANGLLPDDKLTLFCEVSVVQDSVNISGQNTMNMVKVPECRLADELGGLWENSRFTDCCLCVAGQEFQAHKAILAARSPVFSAMFEHEMEESKKNRVEINDVEPEVFKEMMCFIYTGKAPNLDKMADDLLAAADKYALERLKVMCEDALCSNLSVENAAEILILADLHSADQLKTQAVDFINYHASDVLETSGWKSMVVSHPHLVAEAYRSLASAQCPFLGPPRKRLKQS [F133V]

# Variants of: B1
# Conditions: with ntrk3_human NTRK3, Q16288
row,effect of a mutation on the interaction,Variant
1,with no effect,MSRVPSPPPPAEMSSGPVAESWCYTQIKVVKFSYMWTINNFSFCREEMGEVIKSSTFSSGANDKLKWCLRVNPKGLDEESKDYLSLYLLLVSCPKSEVRAKFKFSILNAKGEETKAMESQRAYRFVQGKDWGVKKFIRRDFLLDEANGLLPDDKLTLFCEVSVVQDSVNISGQNTMNMVKVPECRLADELGGLWENSRFTDCCLCVAGQEFQAHKAILAARSPVFSAMFEHEMEESKKNRVEINDVEPEVFKEMMCFIYTGKAPNLDKMADDLLAAADKYALERLKVMCEDALCSNLSVENAAEILILADLHSADQLKTQAVDFINYHASDVLETSGWKSMVVSHPHLVAEAYRSLASAQCPFLGPPRKRLKQS [F133V]

# Variants of: B1
# Conditions: with pak3_human PAK3, O75914
row,effect of a mutation on the interaction,Variant
1,with no effect,MSRVPSPPPPAEMSSGPVAESWCYTQIKVVKFSYMWTINNFSFCREEMGEVIKSSTFSSGANDKLKWCLRVNPKGLDEESKDYLSLYLLLVSCPKSEVRAKFKFSILNAKGEETKAMESQRAYRFVQGKDWGVKKFIRRDFLLDEANGLLPDDKLTLFCEVSVVQDSVNISGQNTMNMVKVPECRLADELGGLWENSRFTDCCLCVAGQEFQAHKAILAARSPVFSAMFEHEMEESKKNRVEINDVEPEVFKEMMCFIYTGKAPNLDKMADDLLAAADKYALERLKVMCEDALCSNLSVENAAEILILADLHSADQLKTQAVDFINYHASDVLETSGWKSMVVSHPHLVAEAYRSLASAQCPFLGPPRKRLKQS [F133V]

# Variants of: B1
# Conditions: with prkn_human PRKN
row,effect of a mutation on the interaction,Variant
1,with no effect,MSRVPSPPPPAEMSSGPVAESWCYTQIKVVKFSYMWTINNFSFCREEMGEVIKSSTFSSGANDKLKWCLRVNPKGLDEESKDYLSLYLLLVSCPKSEVRAKFKFSILNAKGEETKAMESQRAYRFVQGKDWGVKKFIRRDFLLDEANGLLPDDKLTLFCEVSVVQDSVNISGQNTMNMVKVPECRLADELGGLWENSRFTDCCLCVAGQEFQAHKAILAARSPVFSAMFEHEMEESKKNRVEINDVEPEVFKEMMCFIYTGKAPNLDKMADDLLAAADKYALERLKVMCEDALCSNLSVENAAEILILADLHSADQLKTQAVDFINYHASDVLETSGWKSMVVSHPHLVAEAYRSLASAQCPFLGPPRKRLKQS [F133V]

# Variants of: B1
# Conditions: with pb1_human PBRM1, Q86U86
# pb1_human PBRM1, Q86U86, sequence (Q86U86 whole entry): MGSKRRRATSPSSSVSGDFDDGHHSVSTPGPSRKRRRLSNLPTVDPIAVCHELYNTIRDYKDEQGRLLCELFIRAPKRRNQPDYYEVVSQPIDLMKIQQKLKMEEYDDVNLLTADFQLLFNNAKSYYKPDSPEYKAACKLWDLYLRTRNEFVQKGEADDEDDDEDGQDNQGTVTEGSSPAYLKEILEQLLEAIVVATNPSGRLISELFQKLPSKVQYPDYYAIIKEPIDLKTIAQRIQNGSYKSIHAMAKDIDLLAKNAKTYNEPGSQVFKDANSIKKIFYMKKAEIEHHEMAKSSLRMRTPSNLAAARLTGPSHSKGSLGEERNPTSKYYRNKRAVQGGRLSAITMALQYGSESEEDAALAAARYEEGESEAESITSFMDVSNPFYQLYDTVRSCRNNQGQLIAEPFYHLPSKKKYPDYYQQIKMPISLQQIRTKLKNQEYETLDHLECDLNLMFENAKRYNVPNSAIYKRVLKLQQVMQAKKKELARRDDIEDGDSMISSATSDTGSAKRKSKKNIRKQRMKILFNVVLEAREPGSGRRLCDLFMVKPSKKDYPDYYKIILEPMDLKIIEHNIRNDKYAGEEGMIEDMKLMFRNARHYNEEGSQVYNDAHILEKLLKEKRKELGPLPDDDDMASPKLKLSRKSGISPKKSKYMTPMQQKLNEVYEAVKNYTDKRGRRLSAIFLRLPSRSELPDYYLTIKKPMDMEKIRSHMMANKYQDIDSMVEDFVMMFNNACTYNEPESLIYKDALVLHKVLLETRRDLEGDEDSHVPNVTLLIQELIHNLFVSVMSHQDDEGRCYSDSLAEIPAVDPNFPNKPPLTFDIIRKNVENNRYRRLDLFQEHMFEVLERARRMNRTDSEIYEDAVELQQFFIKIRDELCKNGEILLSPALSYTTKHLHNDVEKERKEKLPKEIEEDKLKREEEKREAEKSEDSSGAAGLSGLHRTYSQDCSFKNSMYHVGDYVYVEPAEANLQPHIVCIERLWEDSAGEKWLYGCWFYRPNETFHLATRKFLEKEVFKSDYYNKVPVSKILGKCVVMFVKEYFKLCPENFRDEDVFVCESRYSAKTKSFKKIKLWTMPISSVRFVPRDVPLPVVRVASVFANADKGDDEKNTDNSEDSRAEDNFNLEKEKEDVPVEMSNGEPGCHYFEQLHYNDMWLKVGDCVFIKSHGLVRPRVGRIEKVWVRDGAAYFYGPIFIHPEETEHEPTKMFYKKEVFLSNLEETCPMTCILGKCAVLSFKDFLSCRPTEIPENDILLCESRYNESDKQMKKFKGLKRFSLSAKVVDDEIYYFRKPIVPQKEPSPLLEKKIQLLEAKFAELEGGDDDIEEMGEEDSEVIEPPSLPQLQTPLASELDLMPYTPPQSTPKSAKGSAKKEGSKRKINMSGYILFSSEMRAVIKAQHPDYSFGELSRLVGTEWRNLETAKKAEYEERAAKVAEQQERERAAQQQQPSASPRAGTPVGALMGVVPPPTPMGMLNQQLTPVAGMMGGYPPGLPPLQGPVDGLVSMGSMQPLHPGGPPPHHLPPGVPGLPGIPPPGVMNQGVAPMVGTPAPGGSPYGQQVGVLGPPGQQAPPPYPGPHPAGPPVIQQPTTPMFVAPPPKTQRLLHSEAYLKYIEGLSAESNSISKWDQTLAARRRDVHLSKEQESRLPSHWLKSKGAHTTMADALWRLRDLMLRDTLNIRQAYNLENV
row,effect of a mutation on the interaction,Variant
1,with no effect,MSRVPSPPPPAEMSSGPVAESWCYTQIKVVKFSYMWTINNFSFCREEMGEVIKSSTFSSGANDKLKWCLRVNPKGLDEESKDYLSLYLLLVSCPKSEVRAKFKFSILNAKGEETKAMESQRAYRFVQGKDWGVKKFIRRDFLLDEANGLLPDDKLTLFCEVSVVQDSVNISGQNTMNMVKVPECRLADELGGLWENSRFTDCCLCVAGQEFQAHKAILAARSPVFSAMFEHEMEESKKNRVEINDVEPEVFKEMMCFIYTGKAPNLDKMADDLLAAADKYALERLKVMCEDALCSNLSVENAAEILILADLHSADQLKTQAVDFINYHASDVLETSGWKSMVVSHPHLVAEAYRSLASAQCPFLGPPRKRLKQS [F133V]

# Variants of: B1
# Conditions: with pcbp1_human PCBP1, Q15365
# pcbp1_human PCBP1, Q15365, sequence (Q15365 whole entry): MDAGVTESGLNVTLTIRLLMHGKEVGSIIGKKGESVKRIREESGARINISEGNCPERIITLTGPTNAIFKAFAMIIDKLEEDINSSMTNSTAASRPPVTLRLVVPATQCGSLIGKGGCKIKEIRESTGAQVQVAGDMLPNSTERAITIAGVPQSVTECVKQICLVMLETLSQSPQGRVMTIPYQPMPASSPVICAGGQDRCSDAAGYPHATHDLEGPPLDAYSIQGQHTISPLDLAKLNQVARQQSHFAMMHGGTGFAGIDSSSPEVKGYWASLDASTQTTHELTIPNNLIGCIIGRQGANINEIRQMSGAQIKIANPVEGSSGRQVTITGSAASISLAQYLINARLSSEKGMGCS
row,effect of a mutation on the interaction,Variant
1,with no effect,MSRVPSPPPPAEMSSGPVAESWCYTQIKVVKFSYMWTINNFSFCREEMGEVIKSSTFSSGANDKLKWCLRVNPKGLDEESKDYLSLYLLLVSCPKSEVRAKFKFSILNAKGEETKAMESQRAYRFVQGKDWGVKKFIRRDFLLDEANGLLPDDKLTLFCEVSVVQDSVNISGQNTMNMVKVPECRLADELGGLWENSRFTDCCLCVAGQEFQAHKAILAARSPVFSAMFEHEMEESKKNRVEINDVEPEVFKEMMCFIYTGKAPNLDKMADDLLAAADKYALERLKVMCEDALCSNLSVENAAEILILADLHSADQLKTQAVDFINYHASDVLETSGWKSMVVSHPHLVAEAYRSLASAQCPFLGPPRKRLKQS [F133V]

# Variants of: B1
# Conditions: with pdcd1_human PDCD1, Q15116
# pdcd1_human PDCD1, Q15116, sequence (Q15116 whole entry): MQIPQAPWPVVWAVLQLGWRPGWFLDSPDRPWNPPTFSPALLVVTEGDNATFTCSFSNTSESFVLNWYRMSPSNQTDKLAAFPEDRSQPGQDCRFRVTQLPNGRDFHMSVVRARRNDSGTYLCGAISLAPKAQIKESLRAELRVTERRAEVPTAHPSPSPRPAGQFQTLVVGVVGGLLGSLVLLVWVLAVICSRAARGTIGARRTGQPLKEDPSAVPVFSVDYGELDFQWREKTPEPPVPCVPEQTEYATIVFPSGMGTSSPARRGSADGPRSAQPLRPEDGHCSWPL
row,effect of a mutation on the interaction,Variant
1,with no effect,MSRVPSPPPPAEMSSGPVAESWCYTQIKVVKFSYMWTINNFSFCREEMGEVIKSSTFSSGANDKLKWCLRVNPKGLDEESKDYLSLYLLLVSCPKSEVRAKFKFSILNAKGEETKAMESQRAYRFVQGKDWGVKKFIRRDFLLDEANGLLPDDKLTLFCEVSVVQDSVNISGQNTMNMVKVPECRLADELGGLWENSRFTDCCLCVAGQEFQAHKAILAARSPVFSAMFEHEMEESKKNRVEINDVEPEVFKEMMCFIYTGKAPNLDKMADDLLAAADKYALERLKVMCEDALCSNLSVENAAEILILADLHSADQLKTQAVDFINYHASDVLETSGWKSMVVSHPHLVAEAYRSLASAQCPFLGPPRKRLKQS [F133V]

# Variants of: B1
# Conditions: with pgfrb_human PDGFRB
row,effect of a mutation on the interaction,Variant
1,with no effect,MSRVPSPPPPAEMSSGPVAESWCYTQIKVVKFSYMWTINNFSFCREEMGEVIKSSTFSSGANDKLKWCLRVNPKGLDEESKDYLSLYLLLVSCPKSEVRAKFKFSILNAKGEETKAMESQRAYRFVQGKDWGVKKFIRRDFLLDEANGLLPDDKLTLFCEVSVVQDSVNISGQNTMNMVKVPECRLADELGGLWENSRFTDCCLCVAGQEFQAHKAILAARSPVFSAMFEHEMEESKKNRVEINDVEPEVFKEMMCFIYTGKAPNLDKMADDLLAAADKYALERLKVMCEDALCSNLSVENAAEILILADLHSADQLKTQAVDFINYHASDVLETSGWKSMVVSHPHLVAEAYRSLASAQCPFLGPPRKRLKQS [F133V]

# Variants of: B1
# Conditions: with pdk1_human PDK1, Q15118
# pdk1_human PDK1, Q15118, sequence (Q15118 whole entry, looked up): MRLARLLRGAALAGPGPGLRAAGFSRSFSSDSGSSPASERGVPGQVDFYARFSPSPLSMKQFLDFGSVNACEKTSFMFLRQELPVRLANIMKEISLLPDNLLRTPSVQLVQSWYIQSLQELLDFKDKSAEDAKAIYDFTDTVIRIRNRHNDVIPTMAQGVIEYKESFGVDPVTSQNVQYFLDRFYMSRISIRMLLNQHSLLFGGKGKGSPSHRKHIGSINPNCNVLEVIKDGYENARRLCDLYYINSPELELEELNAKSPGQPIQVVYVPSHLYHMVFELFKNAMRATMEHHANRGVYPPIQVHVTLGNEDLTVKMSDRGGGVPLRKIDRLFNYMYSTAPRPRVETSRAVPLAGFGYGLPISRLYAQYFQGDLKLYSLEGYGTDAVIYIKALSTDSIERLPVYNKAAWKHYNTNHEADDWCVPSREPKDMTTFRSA
row,effect of a mutation on the interaction,Variant
1,with no effect,MSRVPSPPPPAEMSSGPVAESWCYTQIKVVKFSYMWTINNFSFCREEMGEVIKSSTFSSGANDKLKWCLRVNPKGLDEESKDYLSLYLLLVSCPKSEVRAKFKFSILNAKGEETKAMESQRAYRFVQGKDWGVKKFIRRDFLLDEANGLLPDDKLTLFCEVSVVQDSVNISGQNTMNMVKVPECRLADELGGLWENSRFTDCCLCVAGQEFQAHKAILAARSPVFSAMFEHEMEESKKNRVEINDVEPEVFKEMMCFIYTGKAPNLDKMADDLLAAADKYALERLKVMCEDALCSNLSVENAAEILILADLHSADQLKTQAVDFINYHASDVLETSGWKSMVVSHPHLVAEAYRSLASAQCPFLGPPRKRLKQS [F133V]

# Variants of: B1
# Conditions: with pk3ca_human PIK3CA
row,effect of a mutation on the interaction,Variant
1,with no effect,MSRVPSPPPPAEMSSGPVAESWCYTQIKVVKFSYMWTINNFSFCREEMGEVIKSSTFSSGANDKLKWCLRVNPKGLDEESKDYLSLYLLLVSCPKSEVRAKFKFSILNAKGEETKAMESQRAYRFVQGKDWGVKKFIRRDFLLDEANGLLPDDKLTLFCEVSVVQDSVNISGQNTMNMVKVPECRLADELGGLWENSRFTDCCLCVAGQEFQAHKAILAARSPVFSAMFEHEMEESKKNRVEINDVEPEVFKEMMCFIYTGKAPNLDKMADDLLAAADKYALERLKVMCEDALCSNLSVENAAEILILADLHSADQLKTQAVDFINYHASDVLETSGWKSMVVSHPHLVAEAYRSLASAQCPFLGPPRKRLKQS [F133V]

# Variants of: B1
# Conditions: with pk3cb_human PIK3CB
row,effect of a mutation on the interaction,Variant
1,with no effect,MSRVPSPPPPAEMSSGPVAESWCYTQIKVVKFSYMWTINNFSFCREEMGEVIKSSTFSSGANDKLKWCLRVNPKGLDEESKDYLSLYLLLVSCPKSEVRAKFKFSILNAKGEETKAMESQRAYRFVQGKDWGVKKFIRRDFLLDEANGLLPDDKLTLFCEVSVVQDSVNISGQNTMNMVKVPECRLADELGGLWENSRFTDCCLCVAGQEFQAHKAILAARSPVFSAMFEHEMEESKKNRVEINDVEPEVFKEMMCFIYTGKAPNLDKMADDLLAAADKYALERLKVMCEDALCSNLSVENAAEILILADLHSADQLKTQAVDFINYHASDVLETSGWKSMVVSHPHLVAEAYRSLASAQCPFLGPPRKRLKQS [F133V]

# — IntAct's records for PubMed 35512704
